Experimental data as given in the supplement of paper PMC10567573.

B1: KCNAB2 (parent)
chain: YVDVVFANRPDPNTPMEETVRAMT
B2: PKD2L1 (parent)
chain: VFIFYYVVEEILELHIHRLRYLSS
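Also: lentivirally expressed fusions sorted by FACS into six bins by GFP to DsRed ratio, PSI derived from sequencing read proportions per bin multiplied by bin number.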

Variants of: B1
Test: protein stability index of a GFP-peptide fusion (GPS, HEK-293T) (PSI 1-6); higher = more stable
Conditions: c terminus: a fixed tail appended
With YVIVVFANRPDPNTPMEETVRAMT [D3I] the protein stability index was 4.3. Variant YVAVVFANRPDPNTPMEETVRAMT [D3A] has a protein stability index of 2. YVCVVFANRPDPNTPMEETVRAMT [D3C] gave a protein stability index of 2.31. YVKVVFANRPDPNTPMEETVRAMT [D3K] showed a protein stability index of 2.13. For YVHVVFANRPDPNTPMEETVRAMT [D3H], the protein stability index was 2.07. For YVFVVFANRPDPNTPMEETVRAMT [D3F], the protein stability index was 2.71. Variant YVEVVFANRPDPNTPMEETVRAMT [D3E] has a protein stability index of 1.87. Work on YVGVVFANRPDPNTPMEETVRAMT [D3G] yielded a protein stability index of 2.85. NVDVVFANRPDPNTPMEETVRAMT [Y1N] showed a protein stability index of 4.65. HVDVVFANRPDPNTPMEETVRAMT [Y1H] showed a protein stability index of 4.05. Variant SVDVVFANRPDPNTPMEETVRAMT [Y1S] has a protein stability index of 4.28. Variant EVDVVFANRPDPNTPMEETVRAMT [Y1E] has a protein stability index of 4.6. Work on KVDVVFANRPDPNTPMEETVRAMT [Y1K] yielded a protein stability index of 3.77. Work on LVDVVFANRPDPNTPMEETVRAMT [Y1L] yielded a protein stability index of 3.4. CVDVVFANRPDPNTPMEETVRAMT [Y1C] showed a protein stability index of 2.52. With WVDVVFANRPDPNTPMEETVRAMT [Y1W] the protein stability index was 1.74. Variant GVDVVFANRPDPNTPMEETVRAMT [Y1G] has a protein stability index of 4.12. Work on IVDVVFANRPDPNTPMEETVRAMT [Y1I] yielded a protein stability index of 2.7. VVDVVFANRPDPNTPMEETVRAMT [Y1V] gave a protein stability index of 3.15. Variant FVDVVFANRPDPNTPMEETVRAMT [Y1F] has a protein stability index of 1.94. Work on RVDVVFANRPDPNTPMEETVRAMT [Y1R] yielded a protein stability index of 3.55. Variant PVDVVFANRPDPNTPMEETVRAMT [Y1P] has a protein stability index of 4.42. In the case of TVDVVFANRPDPNTPMEETVRAMT [Y1T], the protein stability index is reported as 4.31. For MVDVVFANRPDPNTPMEETVRAMT [Y1M], the protein stability index was 3.69. QVDVVFANRPDPNTPMEETVRAMT [Y1Q] showed a protein stability index of 4.06. Work on AVDVVFANRPDPNTPMEETVRAMT [Y1A] yielded a protein stability index of 4.19. With DVDVVFANRPDPNTPMEETVRAMT [Y1D] the protein stability index was 4.52. Variant YADVVFANRPDPNTPMEETVRAMT [V2A] has a protein stability index of 2.96. For YWDVVFANRPDPNTPMEETVRAMT [V2W], the protein stability index was 2.5. YEDVVFANRPDPNTPMEETVRAMT [V2E] showed a protein stability index of 4.98. With YDDVVFANRPDPNTPMEETVRAMT [V2D] the protein stability index was 4.91. YKDVVFANRPDPNTPMEETVRAMT [V2K] gave a protein stability index of 4.33. Variant YTDVVFANRPDPNTPMEETVRAMT [V2T] has a protein stability index of 2.91. YCDVVFANRPDPNTPMEETVRAMT [V2C] gave a protein stability index of 2.34. In the case of YIDVVFANRPDPNTPMEETVRAMT [V2I], the protein stability index is reported as 2.07. YNDVVFANRPDPNTPMEETVRAMT [V2N] gave a protein stability index of 4.51. YHDVVFANRPDPNTPMEETVRAMT [V2H] gave a protein stability index of 2.39. In the case of YSDVVFANRPDPNTPMEETVRAMT [V2S], the protein stability index is reported as 4.24. Work on YLDVVFANRPDPNTPMEETVRAMT [V2L] yielded a protein stability index of 3.09. YMDVVFANRPDPNTPMEETVRAMT [V2M] showed a protein stability index of 3.61. Work on YPDVVFANRPDPNTPMEETVRAMT [V2P] yielded a protein stability index of 3.69. In the case of YRDVVFANRPDPNTPMEETVRAMT [V2R], the protein stability index is reported as 4.13. For YYDVVFANRPDPNTPMEETVRAMT [V2Y], the protein stability index was 3.07. In the case of YFDVVFANRPDPNTPMEETVRAMT [V2F], the protein stability index is reported as 2.81. For YQDVVFANRPDPNTPMEETVRAMT [V2Q], the protein stability index was 3.32. With YGDVVFANRPDPNTPMEETVRAMT [V2G] the protein stability index was 3.76.

Variants of: B2
Test: as above
Conditions: c terminus: a fixed tail appended
In the case of VFIFYYVVEEILELHIHRLGYLSS [R20G], the protein stability index is reported as 2.12. With VFIFYYVVEEILELHIHRLHYLSS [R20H] the protein stability index was 2.34. VFIFYYVVEEILELHIHRLYYLSS [R20Y] showed a protein stability index of 2.76. For VFIFYYVVEEILELHIHRLTYLSS [R20T], the protein stability index was 3.91. In the case of VFIFYYVVEEILELHIHRLQYLSS [R20Q], the protein stability index is reported as 1.89. VFIFYYVVEEILELHIHRLVYLSS [R20V] gave a protein stability index of 3.27. Work on VFIFYYVVEEILELHIHRLDYLSS [R20D] yielded a protein stability index of 4.23. For VFIFYYVVEEILELHIHRLIYLSS [R20I], the protein stability index was 1.98. VFIFYYVVEEILELHIHRLLYLSS [R20L] showed a protein stability index of 2.38. Variant VFIFYYVVEEILELHIHRLWYLSS [R20W] has a protein stability index of 2.38. Variant VFIFYYVVEEILELHIHRLKYLSS [R20K] has a protein stability index of 2.34. For VFIFYYVVEEILELHIHRLFYLSS [R20F], the protein stability index was 2.85. For VFIFYYVVEEILEDHIHRLRYLSS [L14D], the protein stability index was 1.93. In the case of VFIFYYVVEEILEKHIHRLRYLSS [L14K], the protein stability index is reported as 2.29. For VFIFYYVVEEILEWHIHRLRYLSS [L14W], the protein stability index was 1.99. In the case of VFIFYYVVEEILEIHIHRLRYLSS [L14I], the protein stability index is reported as 2.22. Work on VFIFYYVVEEILEVHIHRLRYLSS [L14V] yielded a protein stability index of 3.38. For VFIFYYVVEEILETHIHRLRYLSS [L14T], the protein stability index was 4.48. VFIFYYVVEEILEPHIHRLRYLSS [L14P] showed a protein stability index of 3.5. With VFIFYYVVEEILERHIHRLRYLSS [L14R] the protein stability index was 2.59. With VFIFYYVVEEILECHIHRLRYLSS [L14C] the protein stability index was 2.19. Work on VFIFYYVVEEILEYHIHRLRYLSS [L14Y] yielded a protein stability index of 2.14. Variant VFIFYYVVEEILEMHIHRLRYLSS [L14M] has a protein stability index of 2.66. Variant VFIFYYVVEEILENHIHRLRYLSS [L14N] has a protein stability index of 3.64. Variant VFIFYYVVEEILEEHIHRLRYLSS [L14E] has a protein stability index of 2.14. With VFIFYYVVEEILEHHIHRLRYLSS [L14H] the protein stability index was 2.69. Work on VFIFYYVVEEILESHIHRLRYLSS [L14S] yielded a protein stability index of 2.8. VFIFYYVVEEILELHIHRLRYLVS [S23V] gave a protein stability index of 3.04. In the case of VFIFYYVVEEILELHIHRLRYLFS [S23F], the protein stability index is reported as 2.05. Variant VFIFYYVVEEILELHIHRLRYLCS [S23C] has a protein stability index of 1.99. In the case of VFIFYYVVEEILELHIHRLRYLTS [S23T], the protein stability index is reported as 3.81. Variant VFIFYYVVEEILELHIHRLRYLYS [S23Y] has a protein stability index of 2.19. VFIFYYVVEEILELHIHRLRYLNS [S23N] gave a protein stability index of 1.82. With VFIFYYVVEEILELHIHRLRYLES [S23E] the protein stability index was 2.12. With VFIFYYVVEEILELHIHRLRYLQS [S23Q] the protein stability index was 3.46. With VFIFYYVVEEILELHIHRLRYLRS [S23R] the protein stability index was 4.53. Variant VFIFYYVVEEILELHIHRLRYLIS [S23I] has a protein stability index of 4. With VFIFYYVVEEILWLHIHRLRYLSS [E13W] the protein stability index was 3.26. Work on VFIFYYVVEEILVLHIHRLRYLSS [E13V] yielded a protein stability index of 3.39. In the case of VFIFYYVVEEILTLHIHRLRYLSS [E13T], the protein stability index is reported as 2.24. VFIFYYVVEEILSLHIHRLRYLSS [E13S] gave a protein stability index of 1.92. VFIFYYVVEEILKLHIHRLRYLSS [E13K] showed a protein stability index of 2.36. VFIFYYVVEEILYLHIHRLRYLSS [E13Y] showed a protein stability index of 1.93. In the case of VFIFYYVVEEILDLHIHRLRYLSS [E13D], the protein stability index is reported as 2.04. Variant VFIFYYVVEEILILHIHRLRYLSS [E13I] has a protein stability index of 3.04. In the case of VFIFYYVVEEILLLHIHRLRYLSS [E13L], the protein stability index is reported as 3.25. Variant VFIFYYVVEEILPLHIHRLRYLSS [E13P] has a protein stability index of 2.44. For VFIFYYVVEEILRLHIHRLRYLSS [E13R], the protein stability index was 3.68.
